Measurements reported in patent US20100120685A1 (WASHINGTON UNIVERSITY, published 2010).
No end group written: not given here.

Legend:
[1] = molecular target: LRP6 (as used in Example 11) (UniProt O75581 20-1613, limits assumed); experiment: competition with 125I-DKK1 for LRP6
[2] = molecular target: LRP5 (as used in Example 11) (UniProt O75197 32-1615, limits assumed); experiment: competition with 125I-Mesd for LRP5
[3] = molecular target: T1, HA-tagged LRP6 on LRP6-transduced HT1080 cells (UniProt O75581 20-1613, limits assumed); experiment: 125I-Mesd saturation binding to LRP6-transduced HT1080 cells, 3 h at 4 C, Scatchard analysis
T1 construct: whole, on cells; the only LRP6 cDNA named in the materials is human; also called mature LRP6 at the cell surface; cell surface LRP6; not shown: HA tag
T1 sequence (O75581 20-1613 limits assumed): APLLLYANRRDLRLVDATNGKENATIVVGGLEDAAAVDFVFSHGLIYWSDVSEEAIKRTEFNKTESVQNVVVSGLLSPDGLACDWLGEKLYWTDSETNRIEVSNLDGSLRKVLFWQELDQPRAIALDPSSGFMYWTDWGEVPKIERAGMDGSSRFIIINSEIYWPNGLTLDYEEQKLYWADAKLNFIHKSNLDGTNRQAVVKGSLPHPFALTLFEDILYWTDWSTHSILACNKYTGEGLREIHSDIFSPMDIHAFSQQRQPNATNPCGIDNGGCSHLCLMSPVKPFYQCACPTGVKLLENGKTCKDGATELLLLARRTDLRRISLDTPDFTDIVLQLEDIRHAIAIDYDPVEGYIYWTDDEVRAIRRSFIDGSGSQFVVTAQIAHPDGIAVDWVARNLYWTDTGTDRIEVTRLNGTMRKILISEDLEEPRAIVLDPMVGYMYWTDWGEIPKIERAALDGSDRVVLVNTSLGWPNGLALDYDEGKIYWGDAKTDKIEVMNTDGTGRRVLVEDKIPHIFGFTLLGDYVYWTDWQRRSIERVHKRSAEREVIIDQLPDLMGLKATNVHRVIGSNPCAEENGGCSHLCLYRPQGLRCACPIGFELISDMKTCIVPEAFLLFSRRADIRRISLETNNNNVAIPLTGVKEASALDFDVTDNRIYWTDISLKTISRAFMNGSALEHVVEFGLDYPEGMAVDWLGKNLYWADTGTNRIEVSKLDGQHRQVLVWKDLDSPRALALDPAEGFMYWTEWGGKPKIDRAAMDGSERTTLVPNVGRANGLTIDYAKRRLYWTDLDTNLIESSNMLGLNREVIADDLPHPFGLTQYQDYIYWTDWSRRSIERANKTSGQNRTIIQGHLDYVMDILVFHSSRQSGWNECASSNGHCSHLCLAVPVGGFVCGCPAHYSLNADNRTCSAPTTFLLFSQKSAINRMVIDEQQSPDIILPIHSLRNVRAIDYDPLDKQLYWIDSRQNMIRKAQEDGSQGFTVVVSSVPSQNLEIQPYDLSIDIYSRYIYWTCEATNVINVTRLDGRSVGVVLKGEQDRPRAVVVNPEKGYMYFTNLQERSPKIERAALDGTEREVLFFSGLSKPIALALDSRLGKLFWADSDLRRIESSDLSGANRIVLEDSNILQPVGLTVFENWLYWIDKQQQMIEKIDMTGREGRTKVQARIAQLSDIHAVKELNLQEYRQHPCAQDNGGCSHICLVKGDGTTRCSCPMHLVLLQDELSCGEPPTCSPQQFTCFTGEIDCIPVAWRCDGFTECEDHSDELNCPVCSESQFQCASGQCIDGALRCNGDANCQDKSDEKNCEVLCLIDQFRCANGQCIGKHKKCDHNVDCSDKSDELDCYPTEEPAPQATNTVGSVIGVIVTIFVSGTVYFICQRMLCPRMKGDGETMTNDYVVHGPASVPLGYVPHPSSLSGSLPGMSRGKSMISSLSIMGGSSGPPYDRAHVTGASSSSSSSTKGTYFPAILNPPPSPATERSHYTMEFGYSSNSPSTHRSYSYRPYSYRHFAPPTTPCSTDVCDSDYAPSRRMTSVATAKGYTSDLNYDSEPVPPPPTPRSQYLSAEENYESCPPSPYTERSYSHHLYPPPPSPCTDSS
Protocol: To examine whether Mesd binds with high affinity to most members of the LDLR family at the cell surface, we performed cell surface ligand binding experiments with cells stably transduced with LRP6 cDNA. Human HT1080 cells, which express undetectable levels of LRP6, were transduced with a viral vector alone (pLNCX2) or with vector containing LRP6 cDNA (Li, Y., Oncogene 23: 9129-9135, 2004) and used for ¹²⁵I-Mesd binding (FIG. 1A). ¹²⁵I-Mesd (5 nM) reached maximal binding after 2 hours incubation at 4° C. with LRP6-expressing HT1080 cells (FIG. 1A). Inclusion of excess unlabeled Mesd (500 nM) completely eliminated this binding.
(A) Time course of ¹²⁵I-Mesd (5 nM) binding to LRP6-transduced HT1080 cells and the control cells. Assay was carried out for the indicated periods at 4° C. in the absence (total) or presence of 500 nM Mesd (non-specific). (B) Saturation binding of ¹²⁵I-Mesd to LRP6-transduced HT1080 cells and the control cells. Assay was carried out at indicated concentrations for 3 hours at 4° C. in the absence (total) or presence (non-specific) of 500 nM Mesd. (C) Scatchard plots of data in B. All values are the average of triple determinations with the s.d. indicated by error bars.

[4] = molecular target: T1, HA-tagged LRP6 on LRP6-transduced …; experiment: binding of truncated Mesd mutant to cell surface LRP6
[5] = molecular target: T1, HA-tagged LRP6 on LRP6-transduced …; experiment: 125I-Mesd (150-195) (5 nM) binding to LRP6-transduced HT1080 cells, 3 h at 4 C
Protocol: In this example, a truncated Mesd mutant containing the last 45 amino acids of C-terminal region was generated (FIG. 3A) and its binding affinity for LRP6 was then analyzed. […] (A) Binding analyses of ¹²⁵I-Mesd and its mutant Mesd (150-195) (5 nM) to LRP6-transduced HT1080 cells and control cells. (B) Binding analyses of ¹²⁵I-Mesd and its mutant Mesd (150-195) (5 nM) to LRP6-transduced HT1080 cells. Assays were carried out for 3 hours at 4° C. in the absence or presence of 500 nM Mesd or its mutant. Values are the means of triple determinations with the s.d. indicated by error bars.

[6] = molecular target: T1, HA-tagged LRP6 on LRP6-transduced …; experiment: conditioned medium on LRP6-transduced HT1080 cells, anti-Myc immunofluorescence
Protocol: To facilitate immunodetection, a c-Myc epitope was included at the C-terminus. The integrity of the subcloned DNA sequence was confirmed by DNA sequencing. Human DKK1-conditioned media were produced by transient transfection of HEK293 cells with pcDNADKK1-Myc in serum-free medium, and allowed to bind to LRP6-transduced HT1080 cells and control cells at room temperature for 60 minutes in the absence or presence of 1 μM Mesd. Cells were then fixed in 4% paraformaldehyde, labeled with anti-Myc monoclonal antibody and detected with Alexa-488 goat anti-mouse IgG. The immunofluorescence was detected by a laser-scanning confocal microscope (Olympus Fluoview 500).
RAP is a receptor antagonist for members of the LDLR family, and is able to inhibit the binding of most known ligands of the LDLR family members. DKK1 is an LRP6-specific ligand and antagonist. […] In these experiments, Serum-free conditioned medium was harvested from HEK293 cells transiently transfected with cDNA for human Myc-DKK1 and allowed to bind to LRP6-transduced HT1080 cells (B,C) and control cells (A) in the absence (A,B) or presence (C) of 1 μM Mesd. Cell-surface-bound Myc-tagged DKK proteins were fixed and detected by immunofluorescence staining with anti-Myc antibody. (D) DKK1 binding to cell surface LRP6 is inhibited by Mesd. […] (E) LRP6-mediated DKK1 degradation is inhibited by Mesd. […]

[7] = molecular target: T1, HA-tagged LRP6 on LRP6-transduced …; experiment: 125I-DKK1 (5 nM) binding to LRP6-transduced HT1080 cells, 3 h at 4 C
Protocol: RAP is a receptor antagonist for members of the LDLR family, and is able to inhibit the binding of most known ligands of the LDLR family members. DKK1 is an LRP6-specific ligand and antagonist. […] In these experiments, Serum-free conditioned medium was harvested from HEK293 cells transiently transfected with cDNA for human Myc-DKK1 and allowed to bind to LRP6-transduced HT1080 cells (B,C) and control cells (A) in the absence (A,B) or presence (C) of 1 μM Mesd. Cell-surface-bound Myc-tagged DKK proteins were fixed and detected by immunofluorescence staining with anti-Myc antibody. (D) DKK1 binding to cell surface LRP6 is inhibited by Mesd. […] (E) LRP6-mediated DKK1 degradation is inhibited by Mesd. LRP6-mediated […] (5 nM) degradation was carried out for 4 hours at 37° C. in the absence or presence of 500 nM RAP or 500 nM Mesd. Values are the means of triple determinations with the s.d. indicated by error bars. Bar, 10 μm. As expected, Myc-tagged DKK1 binds to LRP6 cells (FIG. 9B) but not to the control cells (FIG. 9A).

LRP6 (as used in Example 11), sequence (O75581 20-1613 limits assumed): as above
LRP5 (as used in Example 11), sequence (O75197 32-1615 limits assumed): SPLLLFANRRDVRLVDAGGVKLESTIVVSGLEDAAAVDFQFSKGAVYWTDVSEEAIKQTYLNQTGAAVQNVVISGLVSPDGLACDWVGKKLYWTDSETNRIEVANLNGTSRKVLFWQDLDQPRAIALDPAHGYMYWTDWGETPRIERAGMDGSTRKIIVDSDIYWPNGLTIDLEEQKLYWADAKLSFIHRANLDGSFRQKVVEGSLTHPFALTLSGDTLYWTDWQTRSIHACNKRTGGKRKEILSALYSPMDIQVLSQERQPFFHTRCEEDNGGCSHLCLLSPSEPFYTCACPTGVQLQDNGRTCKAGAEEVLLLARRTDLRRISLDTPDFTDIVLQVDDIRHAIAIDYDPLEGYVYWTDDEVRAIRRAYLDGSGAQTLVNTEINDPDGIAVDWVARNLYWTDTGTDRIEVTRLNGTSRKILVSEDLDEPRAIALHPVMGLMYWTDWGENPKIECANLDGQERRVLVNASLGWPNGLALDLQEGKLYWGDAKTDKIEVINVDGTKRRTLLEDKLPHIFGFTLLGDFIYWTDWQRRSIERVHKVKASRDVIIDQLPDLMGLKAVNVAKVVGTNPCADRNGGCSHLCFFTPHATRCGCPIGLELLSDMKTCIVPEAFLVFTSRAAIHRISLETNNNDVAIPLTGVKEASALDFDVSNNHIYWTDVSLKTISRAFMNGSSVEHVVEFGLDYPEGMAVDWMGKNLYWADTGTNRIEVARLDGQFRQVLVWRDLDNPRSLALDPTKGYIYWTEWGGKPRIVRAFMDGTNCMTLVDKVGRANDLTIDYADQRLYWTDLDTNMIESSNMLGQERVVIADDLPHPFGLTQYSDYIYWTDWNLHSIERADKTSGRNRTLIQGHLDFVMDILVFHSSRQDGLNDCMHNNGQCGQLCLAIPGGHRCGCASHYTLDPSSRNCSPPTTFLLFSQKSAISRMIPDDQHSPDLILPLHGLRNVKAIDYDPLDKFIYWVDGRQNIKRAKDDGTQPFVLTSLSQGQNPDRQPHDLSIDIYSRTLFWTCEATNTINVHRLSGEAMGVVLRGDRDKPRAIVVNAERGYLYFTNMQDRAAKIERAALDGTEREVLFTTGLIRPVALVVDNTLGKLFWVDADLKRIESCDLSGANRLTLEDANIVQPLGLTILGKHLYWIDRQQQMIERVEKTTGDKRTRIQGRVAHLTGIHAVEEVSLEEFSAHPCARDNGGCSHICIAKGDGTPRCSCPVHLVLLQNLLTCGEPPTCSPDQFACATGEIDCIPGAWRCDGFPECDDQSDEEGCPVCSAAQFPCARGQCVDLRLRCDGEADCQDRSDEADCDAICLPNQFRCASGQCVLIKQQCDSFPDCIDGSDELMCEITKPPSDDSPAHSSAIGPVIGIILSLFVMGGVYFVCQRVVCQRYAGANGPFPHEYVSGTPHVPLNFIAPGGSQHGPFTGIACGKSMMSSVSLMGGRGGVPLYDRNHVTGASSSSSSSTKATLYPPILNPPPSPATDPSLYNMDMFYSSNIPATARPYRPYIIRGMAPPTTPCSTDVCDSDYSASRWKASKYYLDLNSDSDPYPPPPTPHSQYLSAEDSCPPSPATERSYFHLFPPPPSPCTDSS

B1: recombinant mouse Mesd protein (wild type) (other, not shown: small tags and cut ends)
chain: ADTPGEATPPPRKKKDIRDYNDADMARLLEQWEKDDDIEEGDLPEHKRPSAPIDFSKLDPGKPESILKMTKKGKTLMMFVTVSGNPTEKETEEITSLWQGSLFNANYDVQRFIVGSDRAIFMLRDGSYAWEIKDFLVSQDRCAEVTLEGQMYPGKGGGSKEKNKTKPEKAKKKEGDRKPRASKEDNRAGSRREDL
modifications: 125I-labelled (IODO-GEN method) where used as tracer
notes: Expressed in E. coli BL21(DE3) from pET-30a(+); 'All the recombinant Mesd proteins lack the Mesd signal peptide'; also called Mesd polypeptide
Q: How did the “fold reduction of 125I-DKK1 binding” value [1] turn out when B1 was run?
A: > 2 fold

Q: And the “fold reduction of 125I-Mesd binding” value [2]?
A: ~10 fold

Q: And the Kd [3]?
A: ~3.3 nM

B2: Mesd (12-195) (other)
chain: RKKKDIRDYNDADMARLLEQWEKDDDIEEGDLPEHKRPSAPIDFSKLDPGKPESILKMTKKGKTLMMFVTVSGNPTEKETEEITSLWQGSLFNANYDVQRFIVGSDRAIFMLRDGSYAWEIKDFLVSQDRCAEVTLEGQMYPGKGGGSKEKNKTKPEKAKKKEGDRKPRASKEDNRAGSRREDL
notes: also called truncated Mesd mutant lacking the N-terminal region; not shown: N-terminal polyhistidine tail from pET-30a(+)
Q: Does B2 bind [4]?
A: binds

B3: Mesd (150-195) (peptide)
chain: QMYPGKGGGSKEKNKTKPEKAKKKEGDPKPRASKEDNRAGSRREDL
modifications: also: 125I-labelled where used as tracer
notes: also called truncated Mesd mutant containing the last 45 amino acids of C-terminal region; Mesd (150-195) peptide; not shown: N-terminal polyhistidine tail from pET-30a(+) if made like the other recombinant Mesd mutants
Q: Does B3 bind [5]?
A: binds

B4: human Myc-tagged DKK1 (conditioned medium of HEK293 cells) (ligand, UniProt O94907 32-266, looked up, not shown: small tags and cut ends)
chain: TLNSVLNSNAIKNLPPPLGGAAGHPGSAVSAAPGILYPGGNKYQTIDNYQPYPCAEDEECGTDEYCASPTRGGDAGVQICLACRKRRKRCMRHAMCCPGNYCKNGICVSSDQNHFRGEIEETITESFGNDHSTLDGYSRRTTLSSKMYHTKGQEGSVCLRSSDCASGLCCARHFWSKICKPVLKEGQVCTKHRRKGSHGLEIFQRCYCGEGLSCRIQKDHHQASNSSRLHTCQRH
notes: also called Myc-DKK1; DKK1-Myc
Q: Does B4 bind [6]?
A: binds

B5: human recombinant DKK1 protein (ligand, UniProt O94907 32-266, looked up)
chain: TLNSVLNSNAIKNLPPPLGGAAGHPGSAVSAAPGILYPGGNKYQTIDNYQPYPCAEDEECGTDEYCASPTRGGDAGVQICLACRKRRKRCMRHAMCCPGNYCKNGICVSSDQNHFRGEIEETITESFGNDHSTLDGYSRRTTLSSKMYHTKGQEGSVCLRSSDCASGLCCARHFWSKICKPVLKEGQVCTKHRRKGSHGLEIFQRCYCGEGLSCRIQKDHHQASNSSRLHTCQRH
modifications: 125I-labelled (IODO-GEN method)
notes: Bought
Q: Does B5 bind [7]?
A: binds

Q: For KGGGSKEKNKTKPEKAKKKEGDPKPRASKEDNRAGSR (also called the oligopeptide) [Mesd oligopeptide KGGGSKEKNKTKPEKAKKKEGDPKPRASKEDNRAGSR], which “fold reduction of 125I-DKK1 binding” value [1] is on record?
A: > 2 fold

Q: And the “fold reduction of 125I-Mesd binding” value [2]?
A: ~10 fold

B6: Mesd (12-155) (other)
chain: RKKKDIRDYNDADMARLLEQWEKDDDIEEGDLPEHKRPSAPIDFSKLDPGKPESILKMTKKGKTLMMFVTVSGNPTEKETEEITSLWQGSLFNANYDVQRFIVGSDRAIFMLRDGSYAWEIKDFLVSQDRCAEVTLEGQMYPGK
notes: also called truncated Mesd mutant lacking both the N-terminal and C-terminal regions; not shown: N-terminal polyhistidine tail from pET-30a(+)
Q: Does B6 bind [4]?
A: no binding
